# Laboratory results taken from patent US5912120A, “Cloning, expression and diagnosis of human cytochrome P450 2C19: the principal determinant of s-mephenytoin metabolism” (The United States of America as represented by the …, priority 1994, dated 1999).
# B1: 2C8: recombinant human cytochrome P450 2C8 (clones 7b and 7c) expressed in yeast (protein)
# chain: MEPFVVLVLCLSFMLLFSLWRQSCRRRKLPPGPTPLPIIGNMLQIDVKDICKSFTNFSKVYGPVFTVYFGMNPIVVFHGYEAVKEALIDNGEEFSGRGNSPISQRITKGLGIISSNGKRWKEIRRFSLTNLRNFGMGKRSIEDRVQEEAHCLVEELRKTKASPCDPTFILGCAPCNVICSVVFQKRFDYKDQNFLTLMKRFNENFRILNSPWIQVCNNFPLLIDCFPGTHNKVLKNVALTRSYIREKVKEHQASLDVNNPRDFMDCFLIKMEQEKDNQKSEFNIENLVGTVADLFVAGTETTSTTLRYGLLLLLKHPEVTAKVQEEIDHVIGRHRSPCMQDRSHMPYTDAVVHEIQRYSDLVPTGVPHAVTTDTKFRNYLIPKGTTIMALLTSVLHDDKEFPNPNIFDPGHFLDKNGNFKKSDYFMPFSAGKRICAGEGLARMELFLFLTTILQNFNLKSVDDLKNLNTTAVTKGIVSLPPSYQICFIPV
# Assays:
# [1] = molecular target: cytochrome P450 2C9, allelic variant clone 65 (Ile359) (human)
# [2] = molecular target: cytochrome P450 2C9, allelic variant clone 25 (Leu359) (human)
# [3] = Mephenytoin 4'-hydroxylase assay, purified recombinant P450 2C in reconstituted system (Table IV); format: biochemical
# Experimental: Recombinant yeast microsomes were prepared from a 10-12 l culture, and recombinant P450s were purified by aminooctylsepharose chromatography as described by Iwasaki et al., J. Biol. Chem. 226:3380-3382 (1991). The Emulgen was then removed from protein by adsorption of the protein to a 4 g hydroxylapatite column (Hypatite C, Clarkson Chemical Company, Williamsport, Pa.) equilibrated with 10 mM potassium phosphate buffer (pH 7.2), 20% glycerol, 0.1 mM EDTA, and 0.1 mM DTT and washing the column with the same buffer until the absorbance at 280 nm returned to zero. The P450 was then eluted with […], and dialyzed overnight against 100 mM potassium phosphate buffer (pH 7.4, 20% glycerol and 0.1 mM EDTA. Absolute and CO difference spectra of purified P450s were determined in the same buffer but containing 0.2% Emulgen and 0.5% cholate.
# Mephenytoin 4'-hydroxylase activity was measured by a modification of the radiometric HPLC assay described by Shimada et al., J. Biol. Chem. 261:909-921 (1986), as described below. Purified or recombinant yeast microsomes (10-50 pmol) were preincubated with dilauroylphosphatidylcholine (15 μg per 50 pmol P450), P450 reductase (500 U per […] P450), and human cytochrome b5 (2:1 molar ratio when added). The reconstituted mixture was preincubated for 5 min at 37° C., and then placed on ice. A final concentration of 0.4 mM radiolabelled S- or R-mephenytoin (20.7 mCi/mM and 20.9 mCi/mMol) was added to 50 mM HEPES buffer (pH 7.4) containing 0.1 mM EDTA and 1.5 mM MgCl2 for recombinant 2C proteins. The mixture was then incubated at 37° with shaking for 3 min, and the reaction started with the addition of 2mM NADPH and terminated after 30 min with an equal volume of methanol. Cytochrome b5 was not included in all CYP2C18 reactions, since it had no effect or produced a slight inhibition on the activity of this CYP protein. Reaction volumes were generally 0.25 ml except when the volume of recombinant purified cytochrome or yeast microsomes was greater than 50 μl. In these cases, the volume was increased to 0.5 ml to limit the volume of glycerol from the purified preparation to <4% of the final volume.
# At the end of the incubation period, the reactions were terminated with an equal volume of methanol. The incubation mixture was centrifuged at 10,000 g for 10 min and an aliquot assayed directly using HPLC without extraction. Samples with particularly low activity were concentrated by lyophilization and redissolved in a small volume of methanol:water (1:1) before assay. The HPLC system consisted of a reverse phase C18 (10 μm) Versapak, 300 mm×4.1 mm column (Altech Associates, Deerfield, Ill.) using an isocratic solvent consisting of methanol:water (45:55) with a flow rate was kept of 1 ml/min for 25 min. Detection of radioactive peaks was accomplished using an on-line Flow-One radiochemical detector (Radiomatic Instruments Co., Tampa, Fla. Detection of the unlabeled 4'-hydroxymephenytoin authentic standard was performed using an on-line multiwavelength UV detector at both 211 and 230 nm.
# Recombinant P450s were purified from yeast microsomes and assays performe
# [4] = Tolbutamide hydroxylase assay, recombinant human CYP2C yeast microsomes (Table V); format: biochemical; conditions: 1 mg yeast microsomal protein + purified P450 reductase (1,000 units)
# Experimental: Tolbutamide hydroxylase activity was measured according to Knodell et al., J. Pharmacol. Exper. […] Yeast microsomes (1 mg protein) were preincubated with 300 pmol hamster P450 reductase in 0.2 ml of the incubation buffer (below) for 3 min at 37° C. The reaction was then placed on ice and incubated in 0.2 ml of 50 mM HEPES buffer (pH 7.4) containing 1.5 mM MgCl2, 0.1 mM EDTA in a final volume of 1 ml and 1 mM sodium tolbutamide. The reaction was initiated with 0.5 mM NADPH. Human liver microsomes (0.22 mg protein) were incubated without reductase. Incubations with reconstituted recombinant P450s contained 50 pmol purified P450 enzyme, 150 pmol P450 reductase, and 15 μg dilauroylphosphatidyl-choline, and were performed in 100 mM potassium phosphate buffer (pH 7.4). Reactions were terminated after 60 min at 37° C. by the addition of 50 μl of 4N HCl, followed by extraction with 3 ml of water-saturated ethyl acetate. The ethyl acetate extracts were dried under nitrogen at 40° C., the residue resolubilized in 200 μl methanol, and 4-hydroxytolbutamide then assayed using HPLC by injecting 50 μl of the solubilized extract onto a μBONDAPAK C18 column (4.6×300 mm) using 0.05% phosphoric acid, pH 2.6: acetonitrile (6:4, v/v) as the mobile phase with a flow rate of 1 ml/min. The column eluate was monitored at 230 nm and rates of product formation were determined from standard curves prepared by adding varying amounts of 4-hydroxytolbutamide to incubations conducted without NADPH. […] Samples were analyzed in triplicate.
# [5] = Tolbutamide hydroxylase assay, purified recombinant P450 2C (Table IV); format: biochemical; conditions: purified P450, reconstituted; blank (22 ± 5) subtracted; means ± SE
# Experimental: Tolbutamide hydroxylase activity was measured according to Knodell et al., J. Pharmacol. Exper. Ther. 241:1112-1119 (1987), with several modifications. Yeast microsomes (1 mg protein) were preincubated with 300 pmol hamster P450 reductase in 0.2 ml of the incubation buffer (below) for 3 min at 37° C. The reaction was then placed on ice and incubated in 0.2 ml of 50 mM HEPES buffer (pH 7.4) containing 1.5 mM MgCl2, 0.1 mM EDTA in a final volume of 1 ml and 1 mM sodium tolbutamide. The reaction was initiated with 0.5 mM NADPH. Human liver microsomes (0.22 mg protein) were incubated without reductase. Incubations with reconstituted recombinant P450s contained 50 pmol purified P450 enzyme, 150 pmol P450 reductase, and 15 μg dilauroylphosphatidyl-choline, and were performed in 100 mM potassium phosphate buffer (pH 7.4). Reactions were terminated after 60 min at 37° C. by the addition of 50 μl of 4N HCl, followed by extraction with 3 ml of water-saturated ethyl acetate. […] The column eluate was monitored at 230 nm and rates of product formation were determined from standard curves prepared by adding varying amounts of 4-hydroxytolbutamide to incubations conducted without NADPH. […] Samples were analyzed in triplicate.
# [6] = Mephenytoin 4'-hydroxylase assay, recombinant human CYP2C yeast microsomes (Table III); format: biochemical
# Experimental: (§1) Purified or recombinant yeast microsomes (10-50 pmol) were preincubated with dilauroylphosphatidylcholine (15 μg per 50 pmol P450), P450 reductase (500 U per 50 mol P450), and human cytochrome b5 (2:1 molar ratio when added). The reconstituted mixture was preincubated for 5 min at 37° C., and then placed on ice. A final concentration of 0.4 mM radiolabelled S- or R-mephenytoin (20.7 mCi/mM and 20.9 mCi/mMol) was added to 50 mM HEPES buffer (pH 7.4) containing 0.1 mM EDTA and 1.5 mM MgCl2 for recombinant 2C proteins. The mixture was then incubated at 37° with shaking for 3 min, and the reaction started with the addition of 2mM NADPH and terminated after 30 min with an equal volume of methanol. […] Reaction volumes were generally 0.25 ml except when the volume of recombinant purified cytochrome or yeast microsomes was greater than 50 μl. In these cases, the volume was increased to 0.5 ml to limit the volume of glycerol from the purified preparation to <4% of the final volume.
# [7] = as above; format: biochemical; conditions: recombinant yeast microsomes + P450 reductase, phospholipid, cytochrome b5 2:1; 0.4 mM substrate, HEPES pH 7.4, 37° C. 30 min; means ± SE
# Experimental: as §1
metabolism of tolbutamide [1] [fold],metabolism of tolbutamide [2] [fold],Molecule,"R/S Ratio ([3]; purified P450, reconstituted system)","Mephenytoin 4'-Hydroxylase Activity S ([3]; purified P450, reconstituted system, triplicate, means ± SE, blank not subtracted) [nmol/min/nmol P450]","Mephenytoin 4'-Hydroxylase Activity R ([3]; triplicate, means ± SE, blank not subtracted) [nmol/min/nmol P450]",Tolbutamide Hydroxylase Activity (nmol/min/nmol P450) ([4]; adjusted for P450 content),Tolbutamide Hydroxylase Activity (nmol/min/mg protein) ([4]; means ±SE),Tolbutamide Hydroxylase Activity [5] [pmol/min/nmol P450],"Mephenytoin 4'-Hydroxylase Activity S ([6]; recombinant yeast microsomes + P450 reductase, phospholipid, cytochrome b5 2:1, 0.4 mM substrate, HEPES pH 7.4, 37° C. 30 min, means ± SE) [nmol/min/nmol P450]","R/S Ratio ([6]; recombinant yeast microsomes, with cytochrome b5)",Mephenytoin 4'-Hydroxylase Activity R [7] [nmol/min/nmol P450]
> 10,> 10,exogenous P450 reductase (enzyme),,,,,,,,,
,,B1,0.4,0.057 ± 0.009,0.023 ± 0.004,0.11 ± 0.003,8.5 ± 0.2,12 ± 4,0.037 ± 0.001,0.4,0.016 ± 0.001
